Test results as given in paper PMC3361065 (Biochemistry, 2012).

B1: yeast mitochondrial transcription factor MTF1 (natural protein, UniProt P14908 1-341, looked up)
chain: MSVPIPGIKDISKLKFFYGFKYLWNPTVYNKIFDKLDLTKTYKHPEELKVLDLYPGVGIQSAIFYNKYCPRQYSLLEKRSSLYKFLNAKFEGSPLQILKRDPYDWSTYSNLIDEERIFVPEVQSSDHINDKFLTVANVTGEGSEGLIMQWLSCIGNKNWLYRFGKVKMLLWMPSTTARKLLARPGMHSRSKCSVVREAFTDTKLIAISDANELKGFDSQCIEEWDPILFSAAEIWPTKGKPIALVEMDPIDFDFDVDNWDYVTRHLMILKRTPLNTVMDSLGHGGQQYFNSRITDKDLLKKCPIDLTNDEFIYLTKLFMEWPFKPDILMDFVDMYQTEHSG
B2: 33 bp Duplex promoter (dsDNA)
DNA 1: CGCGTAAAACTATTCTTTATTACTTATATCGCG
DNA 2: CGCGATATAAGTAATAAAGAATAGTTTTACGCG

Assays:
[1] = biological target: T1, yeast MtRNAP with residues 1-358 deleted (ΔN1) (yeast, UniProt P13433 359-1351); test: ultrafiltration retention
T1 sequence (looked up): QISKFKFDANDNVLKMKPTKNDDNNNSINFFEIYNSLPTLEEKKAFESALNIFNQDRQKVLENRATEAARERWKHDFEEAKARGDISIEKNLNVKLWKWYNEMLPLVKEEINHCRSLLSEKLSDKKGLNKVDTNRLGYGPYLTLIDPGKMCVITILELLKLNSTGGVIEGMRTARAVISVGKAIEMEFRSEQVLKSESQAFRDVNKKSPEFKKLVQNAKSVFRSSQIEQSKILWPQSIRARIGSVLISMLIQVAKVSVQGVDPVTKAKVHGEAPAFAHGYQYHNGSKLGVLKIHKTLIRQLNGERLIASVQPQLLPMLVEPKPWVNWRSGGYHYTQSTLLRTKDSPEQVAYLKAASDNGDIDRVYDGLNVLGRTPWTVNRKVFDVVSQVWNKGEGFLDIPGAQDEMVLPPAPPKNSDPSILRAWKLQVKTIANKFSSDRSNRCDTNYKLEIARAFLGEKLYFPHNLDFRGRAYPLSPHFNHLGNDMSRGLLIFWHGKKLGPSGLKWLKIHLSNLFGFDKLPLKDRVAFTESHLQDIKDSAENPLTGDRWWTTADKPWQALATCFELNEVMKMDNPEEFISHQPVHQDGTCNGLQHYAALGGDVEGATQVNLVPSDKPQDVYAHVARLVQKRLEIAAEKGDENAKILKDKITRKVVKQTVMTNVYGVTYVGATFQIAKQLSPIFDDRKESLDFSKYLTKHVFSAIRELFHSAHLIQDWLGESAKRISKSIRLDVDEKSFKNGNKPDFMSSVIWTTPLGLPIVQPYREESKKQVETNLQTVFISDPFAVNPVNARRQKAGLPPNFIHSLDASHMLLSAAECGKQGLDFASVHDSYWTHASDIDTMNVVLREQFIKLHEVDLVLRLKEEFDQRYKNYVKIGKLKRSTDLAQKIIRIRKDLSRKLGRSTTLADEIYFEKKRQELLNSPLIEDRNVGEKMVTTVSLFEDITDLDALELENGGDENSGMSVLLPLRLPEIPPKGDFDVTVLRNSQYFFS

[2] = biological target: T2, yeast MtRNAP with residues 1-264 deleted (ΔN2) (yeast, UniProt P13433 265-1351); test: native gel or EMSA
T2 sequence (looked up): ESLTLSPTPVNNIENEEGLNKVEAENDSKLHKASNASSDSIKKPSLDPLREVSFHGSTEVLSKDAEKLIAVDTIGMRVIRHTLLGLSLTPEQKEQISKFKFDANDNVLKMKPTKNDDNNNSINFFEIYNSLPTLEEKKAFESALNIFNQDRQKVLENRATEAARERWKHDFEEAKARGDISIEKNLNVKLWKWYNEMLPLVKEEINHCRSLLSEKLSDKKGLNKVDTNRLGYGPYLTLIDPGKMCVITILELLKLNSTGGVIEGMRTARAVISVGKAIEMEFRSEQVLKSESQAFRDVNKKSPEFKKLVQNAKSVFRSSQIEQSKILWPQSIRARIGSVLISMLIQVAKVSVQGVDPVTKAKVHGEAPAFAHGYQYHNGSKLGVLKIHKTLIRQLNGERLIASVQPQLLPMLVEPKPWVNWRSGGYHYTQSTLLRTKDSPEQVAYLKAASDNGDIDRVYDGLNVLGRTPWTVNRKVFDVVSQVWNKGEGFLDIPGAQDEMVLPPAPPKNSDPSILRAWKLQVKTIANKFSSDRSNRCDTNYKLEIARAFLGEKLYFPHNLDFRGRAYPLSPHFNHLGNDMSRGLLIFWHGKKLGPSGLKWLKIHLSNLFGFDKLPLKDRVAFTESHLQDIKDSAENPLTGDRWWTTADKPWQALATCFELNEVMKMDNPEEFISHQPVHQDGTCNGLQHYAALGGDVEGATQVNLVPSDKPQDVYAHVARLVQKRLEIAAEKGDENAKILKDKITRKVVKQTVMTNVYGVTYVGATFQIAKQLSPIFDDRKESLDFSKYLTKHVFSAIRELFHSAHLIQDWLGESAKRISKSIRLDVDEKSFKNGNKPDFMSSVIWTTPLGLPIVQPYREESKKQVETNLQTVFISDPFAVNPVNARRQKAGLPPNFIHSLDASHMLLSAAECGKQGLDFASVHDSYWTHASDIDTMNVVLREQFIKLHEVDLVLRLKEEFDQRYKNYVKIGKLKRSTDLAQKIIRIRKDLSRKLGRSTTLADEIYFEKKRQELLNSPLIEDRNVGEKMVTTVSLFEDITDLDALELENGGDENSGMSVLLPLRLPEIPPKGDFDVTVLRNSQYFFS

[3] = biological target: yeast mitochondrial RNA polymerase (scMtRNAP) WT;MTF1 (yeast mitochondrial transcription factor) (Saccharomyces cerevisiae?;Saccharomyces …, UniProt P13433;P14908 1-1351;1-341, |); test: EMSA
Sequence of yeast mitochondrial RNA polymerase (scMtRNAP) WT;MTF1 (yeast mitochondrial transcription factor) (P13433 whole entry, chain 1 of 2, one chain of several): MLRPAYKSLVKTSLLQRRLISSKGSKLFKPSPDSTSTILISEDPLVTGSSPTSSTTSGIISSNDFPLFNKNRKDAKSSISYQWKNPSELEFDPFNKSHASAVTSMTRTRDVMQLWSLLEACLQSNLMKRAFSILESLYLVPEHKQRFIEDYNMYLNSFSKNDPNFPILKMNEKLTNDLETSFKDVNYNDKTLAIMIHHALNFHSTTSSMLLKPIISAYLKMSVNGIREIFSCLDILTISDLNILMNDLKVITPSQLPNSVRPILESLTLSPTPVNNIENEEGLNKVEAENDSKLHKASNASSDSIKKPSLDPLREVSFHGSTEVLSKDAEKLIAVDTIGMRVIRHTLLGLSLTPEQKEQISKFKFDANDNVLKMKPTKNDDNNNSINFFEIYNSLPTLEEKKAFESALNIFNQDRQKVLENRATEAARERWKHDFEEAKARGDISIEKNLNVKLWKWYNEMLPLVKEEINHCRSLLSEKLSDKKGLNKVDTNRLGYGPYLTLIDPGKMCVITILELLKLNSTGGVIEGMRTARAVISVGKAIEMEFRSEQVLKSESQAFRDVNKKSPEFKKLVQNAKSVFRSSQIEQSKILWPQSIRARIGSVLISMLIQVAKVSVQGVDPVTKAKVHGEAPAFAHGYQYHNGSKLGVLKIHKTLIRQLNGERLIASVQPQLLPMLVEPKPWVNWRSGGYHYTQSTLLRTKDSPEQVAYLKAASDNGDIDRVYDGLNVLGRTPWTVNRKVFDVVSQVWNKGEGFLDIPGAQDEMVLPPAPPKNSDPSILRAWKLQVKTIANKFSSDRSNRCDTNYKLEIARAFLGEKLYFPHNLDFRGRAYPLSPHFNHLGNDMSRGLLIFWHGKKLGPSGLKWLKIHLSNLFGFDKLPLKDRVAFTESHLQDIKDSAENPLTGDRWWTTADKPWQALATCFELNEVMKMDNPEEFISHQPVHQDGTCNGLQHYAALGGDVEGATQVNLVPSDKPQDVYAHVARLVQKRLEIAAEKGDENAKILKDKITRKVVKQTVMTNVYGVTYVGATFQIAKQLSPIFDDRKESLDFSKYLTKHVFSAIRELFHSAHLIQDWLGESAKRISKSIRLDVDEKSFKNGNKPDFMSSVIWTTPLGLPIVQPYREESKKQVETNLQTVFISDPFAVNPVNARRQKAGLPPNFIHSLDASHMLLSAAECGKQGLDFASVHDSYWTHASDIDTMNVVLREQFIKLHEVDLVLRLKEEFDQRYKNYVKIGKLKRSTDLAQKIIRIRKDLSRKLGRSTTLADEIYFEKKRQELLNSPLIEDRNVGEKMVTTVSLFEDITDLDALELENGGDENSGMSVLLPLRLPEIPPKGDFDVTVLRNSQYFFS

Binder | binding result [1] | binding result [2] | Kd [3] [nM]
B1 | binds | binds | –
B2 | – | – | 480
